Experimental data reported in article PMC13022455, “Oligomerization-dependent and synergistic regulation of Cdc42 GTPase cycling by a GEF and a GAP” (EMBO Reports, 2026).

What was measured:
Cdc24 (S. cerevisiae) = biological target: T1, Cdc24 (S. cerevisiae) (UniProt P11433)
T1 sequence: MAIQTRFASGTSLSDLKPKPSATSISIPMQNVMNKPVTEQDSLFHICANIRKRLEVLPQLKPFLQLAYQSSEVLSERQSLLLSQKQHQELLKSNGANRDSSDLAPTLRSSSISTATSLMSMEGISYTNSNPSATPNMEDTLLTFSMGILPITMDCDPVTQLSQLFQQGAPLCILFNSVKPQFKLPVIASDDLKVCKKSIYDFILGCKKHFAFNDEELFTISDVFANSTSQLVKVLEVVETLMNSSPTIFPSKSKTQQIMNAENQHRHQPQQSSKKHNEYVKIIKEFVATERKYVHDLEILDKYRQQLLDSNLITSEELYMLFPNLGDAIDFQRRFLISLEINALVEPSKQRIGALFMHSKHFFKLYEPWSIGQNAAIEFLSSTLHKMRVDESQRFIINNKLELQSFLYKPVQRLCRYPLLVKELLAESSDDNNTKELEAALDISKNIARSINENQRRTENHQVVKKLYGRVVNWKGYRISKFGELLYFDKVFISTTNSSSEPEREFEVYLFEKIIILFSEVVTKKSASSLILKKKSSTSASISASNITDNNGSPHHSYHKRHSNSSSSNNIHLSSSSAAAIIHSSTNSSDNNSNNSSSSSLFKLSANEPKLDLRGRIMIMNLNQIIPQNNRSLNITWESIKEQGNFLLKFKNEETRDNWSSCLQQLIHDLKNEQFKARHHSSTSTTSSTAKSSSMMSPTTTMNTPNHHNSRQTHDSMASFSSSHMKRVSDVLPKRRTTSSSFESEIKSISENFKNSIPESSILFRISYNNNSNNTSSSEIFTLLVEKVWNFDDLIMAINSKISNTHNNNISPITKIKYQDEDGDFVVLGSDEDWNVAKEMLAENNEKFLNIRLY

[1] = biological target: the molecule itself; assay: SEC-MALS; single purified proteins; Superdex 200 Increase 10/300 GL, SEC buffer (50 mM Tris-HCl pH 7.5, 100 mM NaCl, 10 mM MgCl2, 1 mM 2-mercaptoethanol) with 0.02% sodium azide, 0.5 mL/min; samples 5.7–7.1 µM; fractions analysed by SDS-PAGE and anti-His western blot
[2] = biological target: Cdc24-DH3 (incl. mutation L339A, E340A) (S. cerevisiae) (UniProt P11433)

B1: His-Rga2 (Rga2 tagged with an N-terminal 6His purification tag) (enzyme, S. cerevisiae, UniProt Q06407 1-1009, looked up)
chain: MSADPINDQSSLCVRCNKSIASSQVYELESKKWHDQCFTCYKCDKKLNADSDFLVLDIGTLICYDCSDKCTNCGDKIDDTAIILPSSNEAYCSNCFRCCRCSNRIKNLKYAKTKRGLCCMDCHEKLLRKKQLLLENQTKNSSKEDFPIKLPERSVKRPLSPTRINGKSDVSTNNTAISKNLVSSNEDQQLTPQVLVSQERDESSLNDNNDNDNSKDREETSSHARTVSIDDILNSTLEHDSNSIEEQSLVDNEDYINKMGEDVTYRLLKPQRANRDSIVVKDPRIPNSNSNANRFFSIYDKEETDKDDTDNKENEIIVNTPRNSTDKITSPLNSPMAVQMNEEVEPPHGLALTLSEATKENNKSSQGIQTSTSKSMNHVSPITRTDTVEMKTSTSSSTLRLSDNGSFSRPQTADNLLPHKKVAPSPNKKLSRSFSLKSKNFVHNLKSKTSEMLDPKHPHHSTSIQESDTHSGWGVSSTHTNIRKSKAKKNPVSRGQSDSTIYNTLPQHGNFTVPEFNHKKAQSSLGSISKKQNSNDTATNRRINGSFTSSSSGHHIAMFRTPPLESGPLFKRPSLSSESAHHRSSSLQTSRSTNALLEDDSTKVDATDESATSLEKDFYFTELTLRKLKLDVRELEGTKKKLLQDVENLRLAKERLLNDVDNLTREKDKQSASSRESLEQKENIATSITVKSPSSNSDRKGSISNASPKPRFWKIFSSAKDHQVGDLESQQRSPNSSSGGTTNIAQKEISSPKLIRVHDELPSPGKVPLSPSPKRLDYTPDGSHLYGSSLQARCAYEKSTVPIIIRCCIDRIEKDDIGLNMEGLYRKSGSQTLVEEIENEFAQNNSLHSDTLSPKLNALLNQDIHAVASVLKRYLRKLPDPVLSFSIYDALIDLVRNNQLIERLPLNNDKFLDSPQKVTIYEMVLKSLLEIFKILPVEHQEVLKVLAAHIGKVRRCSERNLMNLHNLSLVFAPSLIHDFDGEKDIVDMKERNYIVEFILGNYRDIFKQA
notes: plasmid pRV014; Found only as higher-order oligomers in SEC-MALS; also called Rga2(I); pRV014; source: E. coli BL21 DE3 pLysS, purified (HisTrap Excel, SEC Sephacryl S-300); not shown: His6, N-terminal, kept
Cdc24 (S. cerevisiae)
  interaction (synergy) rate k3,X1,X2 of Cdc42 GTPase cycling in Cdc42–Cdc24–Rga2 ((II)) mixtures (GTPase-Glo assay): 51.7 µM^−4 h^−1
  interaction (synergy) rate k3,X1,X2 of Cdc42 GTPase cycling in Cdc42–Cdc24–Rga2(I) mixtures (GTPase-Glo assay): 87 µM^−4 h^−1
[1]
  binding result: binds

B2: Cdc24-DH3 (incl. mutation L339A, E340A) (enzyme)
chain: MAIQTRFASGTSLSDLKPKPSATSISIPMQNVMNKPVTEQDSLFHICANIRKRLEVLPQLKPFLQLAYQSSEVLSERQSLLLSQKQHQELLKSNGANRDSSDLAPTLRSSSISTATSLMSMEGISYTNSNPSATPNMEDTLLTFSMGILPITMDCDPVTQLSQLFQQGAPLCILFNSVKPQFKLPVIASDDLKVCKKSIYDFILGCKKHFAFNDEELFTISDVFANSTSQLVKVLEVVETLMNSSPTIFPSKSKTQQIMNAENQHRHQPQQSSKKHNEYVKIIKEFVATERKYVHDLEILDKYRQQLLDSNLITSEELYMLFPNLGDAIDFQRRFLISAAINALVEPSKQRIGALFMHSKHFFKLYEPWSIGQNAAIEFLSSTLHKMRVDESQRFIINNKLELQSFLYKPVQRLCRYPLLVKELLAESSDDNNTKELEAALDISKNIARSINENQRRTENHQVVKKLYGRVVNWKGYRISKFGELLYFDKVFISTTNSSSEPEREFEVYLFEKIIILFSEVVTKKSASSLILKKKSSTSASISASNITDNNGSPHHSYHKRHSNSSSSNNIHLSSSSAAAIIHSSTNSSDNNSNNSSSSSLFKLSANEPKLDLRGRIMIMNLNQIIPQNNRSLNITWESIKEQGNFLLKFKNEETRDNWSSCLQQLIHDLKNEQFKARHHSSTSTTSSTAKSSSMMSPTTTMNTPNHHNSRQTHDSMASFSSSHMKRVSDVLPKRRTTSSSFESEIKSISENFKNSIPESSILFRISYNNNSNNTSSSEIFTLLVEKVWNFDDLIMAINSKISNTHNNNISPITKIKYQDEDGDFVVLGSDEDWNVAKEMLAENNEKFLNIRLY
[2]
  rate k3,Cdc24-DH3 of Cdc42 GTPase cycling (GTPase-Glo assay): 0.702 µM^−2 h^−1

B3: GAP domain (aa 797–981 from Rga2) (domain or fragment, S. cerevisiae, UniProt Q06407 797-981, looked up)
chain: EKSTVPIIIRCCIDRIEKDDIGLNMEGLYRKSGSQTLVEEIENEFAQNNSLHSDTLSPKLNALLNQDIHAVASVLKRYLRKLPDPVLSFSIYDALIDLVRNNQLIERLPLNNDKFLDSPQKVTIYEMVLKSLLEIFKILPVEHQEVLKVLAAHIGKVRRCSERNLMNLHNLSLVFAPSLIHDFDG
notes: Rga2 GAP domain, S. cerevisiae, aa 797–981 (Smith et al, 2002); plasmid pRV138; also called Rga2's GAP domain; pRV138; source: E. coli BL21 DE3 pLysS, purified (HisTrap Excel, SEC Sephacryl S-300)
[1]
  binding result: binds
